In publication PMC10397247 one finds interaction score data, which are given here for 4 molecules.

What all share (test): two-hybrid library CCmax;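 also: natural log of median RNA to DNA barcode read ratio; higher means stronger binding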
The target in assay [1] is T1, APC8910-AA.
T1 chain: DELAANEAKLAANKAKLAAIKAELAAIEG

In assay [2] the target is T2, APC9096-AA.
T2 chain: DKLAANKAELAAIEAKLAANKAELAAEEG
Particulars: mean of both orientations.

For assay [3], the target named is T3, APC9319-AA.
T3 chain: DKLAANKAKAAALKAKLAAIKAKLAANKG
Particulars: mean of both orientations.

For assay [4], the target named is T4, 4H87-AA.
T4 chain: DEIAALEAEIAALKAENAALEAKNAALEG

Assay [5] concerns the target T5, 4H2754-AA.
T5 chain: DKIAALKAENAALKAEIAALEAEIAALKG

Assay [6] concerns the target T6, 4H2837-AA.
T6 chain: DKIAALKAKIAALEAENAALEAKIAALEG
The note with it: mean of both orientations.

Assay [7] has as its target T7, 4H2883-AA.
T7 chain: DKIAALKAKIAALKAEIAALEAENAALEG
Particulars: mean of both orientations.

The target of assay [8] is T8, 4H2944-AA.
T8 chain: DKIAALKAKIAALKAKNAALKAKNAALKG
Particulars: mean of both orientations.

The target in assay [9] is T9, 4H2949-AA.
T9 chain: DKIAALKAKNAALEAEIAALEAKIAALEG
The note with it: mean of both orientations.

The target of assay [10] is T10, 4H3112-AA.
T10 chain: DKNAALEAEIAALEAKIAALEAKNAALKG
Particulars: mean of both orientations.

The target in assay [11] is T11, 4H317-AA.
T11 chain: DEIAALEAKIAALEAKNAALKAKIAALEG
Particulars: mean of both orientations.

Assay [12] deals with T12, 4H3343-AA.
T12 chain: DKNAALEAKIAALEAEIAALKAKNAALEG
Particulars: mean of both orientations.

The target of assay [13] is T13, 4H335-AA.
T13 chain: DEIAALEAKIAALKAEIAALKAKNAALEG
Particulars: mean of both orientations.

For assay [14], the target named is T14, 4H342-AA.
T14 chain: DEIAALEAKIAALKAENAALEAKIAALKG
The note with it: mean of both orientations.

Assay [15] concerns the target T15, 4H3427-AA.
T15 chain: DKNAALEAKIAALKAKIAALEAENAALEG
Particulars: mean of both orientations.

In assay [16] the target is T16, 4H3606-AA.
T16 chain: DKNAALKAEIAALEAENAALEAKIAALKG
Particulars: mean of both orientations.

In assay [17] the target is T17, 4H3627-AA.
T17 chain: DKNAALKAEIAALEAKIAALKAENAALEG
The note with it: mean of both orientations.

Assay [18] addresses T18, 4H3655-AA.
T18 chain: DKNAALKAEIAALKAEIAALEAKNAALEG
The note with it: mean of both orientations.

Assay [19] addresses T19, 4H3844-AA.
T19 chain: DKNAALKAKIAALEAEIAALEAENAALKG
The note with it: mean of both orientations.

Assay [20] has as its target T20, 4H3921-AA.
T20 chain: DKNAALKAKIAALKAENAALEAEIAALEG
Particulars: mean of both orientations.

Assay [21] deals with T21, 4H429-AA.
T21 chain: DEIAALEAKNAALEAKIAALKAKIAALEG
Particulars: mean of both orientations.

Assay [22] concerns the target T22, 4H454-AA.
T22 chain: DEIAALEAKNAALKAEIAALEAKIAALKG
The note with it: mean of both orientations.

Assay [23] has as its target T23, 4H48-AA.
T23 chain: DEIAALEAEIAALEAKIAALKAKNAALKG
The note with it: mean of both orientations.

For assay [24], the target named is T24, 4H566-AA.
T24 chain: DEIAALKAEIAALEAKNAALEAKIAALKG
The note with it: mean of both orientations.

Assay [25] concerns the target T25, 4H605-AA.
T25 chain: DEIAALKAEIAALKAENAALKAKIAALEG
The note with it: mean of both orientations.

Assay [26] has as its target T26, 4H678-AA.
T26 chain: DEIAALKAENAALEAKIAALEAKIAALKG
The note with it: mean of both orientations.

Assay [27] deals with T27, 4H717-AA.
T27 chain: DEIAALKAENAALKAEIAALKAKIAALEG
Particulars: mean of both orientations.

For assay [28], the target named is T28, 4H780-AA.
T28 chain: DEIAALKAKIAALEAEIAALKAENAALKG
The note with it: mean of both orientations.

Assay [29] has as its target T29, 4H794-AA.
T29 chain: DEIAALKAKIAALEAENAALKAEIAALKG
The note with it: mean of both orientations.

For assay [30], the target named is T30, 4H881-AA.
T30 chain: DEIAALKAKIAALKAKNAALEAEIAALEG
Particulars: mean of both orientations.

The target of assay [31] is T31, 4H906-AA.
T31 chain: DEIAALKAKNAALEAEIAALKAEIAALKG
Particulars: mean of both orientations.

In assay [32] the target is T32, 4H993-AA.
T32 chain: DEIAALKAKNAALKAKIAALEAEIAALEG
The note with it: mean of both orientations.

The target of assay [33] is T33, 4H3628-AA.
T33 chain: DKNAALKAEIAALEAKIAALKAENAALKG

Assay [34] addresses T34, 4H3666-AA.
T34 chain: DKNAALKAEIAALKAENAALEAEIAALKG
The note with it: mean of both orientations.

For assay [35], the target named is T35, 4H3709-AA.
T35 chain: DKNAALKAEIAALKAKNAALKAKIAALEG
The note with it: mean of both orientations.

In assay [36] the target is T36, 4H391-AA.
T36 chain: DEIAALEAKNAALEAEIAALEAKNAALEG
Particulars: mean of both orientations.

In assay [37] the target is T37, 4H3920-AA.
T37 chain: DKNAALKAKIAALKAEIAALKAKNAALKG
Particulars: mean of both orientations.

The target in assay [38] is T38, 4H3939-AA.
T38 chain: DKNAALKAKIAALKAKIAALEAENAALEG
Particulars: mean of both orientations.

The target in assay [39] is T39, 4H428-AA.
T39 chain: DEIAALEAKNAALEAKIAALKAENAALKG
Particulars: mean of both orientations.

Assay [40] concerns the target T40, 4H478-AA.
T40 chain: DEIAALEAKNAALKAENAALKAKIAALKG
The note with it: mean of both orientations.

Assay [41] concerns the target T41, 4H497-AA.
T41 chain: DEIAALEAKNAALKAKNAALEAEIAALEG
Particulars: mean of both orientations.

The target in assay [42] is T42, 4H656-AA.
T42 chain: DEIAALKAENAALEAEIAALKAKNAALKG
The note with it: mean of both orientations.

Assay [43] addresses T43, 4H675-AA.
T43 chain: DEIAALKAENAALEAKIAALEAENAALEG
Particulars: mean of both orientations.

In assay [44] the target is T44, 4H971-AA.
T44 chain: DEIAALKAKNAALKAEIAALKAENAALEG
The note with it: mean of both orientations.

Turning to DELAANEAKLAANKAKLAAIKAELAAIEG [APC8910-AA], the interaction score in assay [1] was -2.88; in [2] it was -2.09; in assay [3] it was -2.07.
In [4], DEIAALEAEIAALKAENAALEAKNAALEG [4H87-AA] returned an interaction score of -0.571.
In the case of DKIAALKAENAALKAEIAALEAEIAALKG [4H2754-AA], the interaction score in assay [5] was 2.15; in assay [6], -0.727; in assay [7], -0.999; in assay [8], -1.87; in [9] it was -1.05; in assay [10] it was -1.52. The interaction score in assay [11] is -1.23; in assay [12] it was -1.26; in assay [13], -0.745; in assay [14], 0.684; in assay [15] it was -1.7; in assay [16], 0.688. Moreover, the interaction score in assay [17] is -1.36; in assay [18], -1.51; in assay [19] it was -1.53; in [20] it was -0.732; in assay [21] it was 0.608; in assay [22], 2.24. In addition, the interaction score in [23] is -1.2; in [24], -1.09; in [25] it was -1.51; in assay [26] it was 1.82; in [27], 0.757; in assay [28] it was -1.74. In addition, the interaction score is -1.89 in assay [29], 1.13 in assay [30], -0.0753 in assay [31] and 1.43 in assay [32].
With DKNAALKAEIAALEAKIAALKAENAALKG [4H3628-AA], the interaction score was 0.286 in assay [33]; -1.56 in assay [34]; -1.58 in [35]; -1.27 in assay [36]; 0.724 in assay [37]; 0.744 in assay [38]. The interaction score in [39] was -0.847; in assay [40], -2.19; in assay [41], -1.67; in assay [42] it was -1.43; in assay [43] it was -1.51; in [44], -1.01.
